# Assay results published in US20250115677A1, “Anti-CEA Antibody Drug Conjugates and Methods of Use” (BeiGene Switzerland GmbH, priority 2022, published 2025).
# Residue numbers refer to the chain shown, from its start. Names and notes keep the numbering of the source. Like-named read-outs stand apart in the source and are kept apart here.
# B1: BGA2490 (antibody, human IgG1, kappa, V domains shown)
# VH: QVQLVQSGAEVKKPGASVKVSCKASGYIFTSYYLHWVRQAPGQGLEWIGYINPQTGKTSYAQKFQGRVTMTRDTSTSTVYMELSSLRSEDTAVYYCAREYGNYNYPLDYWGQGTLVTVSS
# VL: DIQMTQSPSSLSASVGDRVTITCRASENQYGYLAWYQQKPGKVPKLLIYNYKNLVEGVPSRFSGSGSGTDFTLTISSLQPEDVATYYCQHHLGTPYTFGQGTKVEIKR
# modifications: linker-payload conjugated after reduction of the antibody, DAR 8 profile (structure only as a drawing in Table 18)
# B2: BGA7592-1F (antibody, human IgG1, V domains shown)
# VH: B1 VH with Y33W, K57Y
# VL: DIQMTQSPSSLSASVGDRVTITCRASENIYGYLAWYQQKPGKVPKLLIYNAKNLVEGVPSRFSGSGSGTDFTLTISSLQPEDVATYYCQHHYGTPYTFGQGTKVEIK
# notes: BGA7592-1 with N54Q, N59S, S61A in VH; human IgG1 wild type / kappa format; also called BGA5366
# B3: BGA7592-1F (BGA5366): "BGA7592-1F (also described herein as BGA5366)"; humanized anti-CEA antibody, parent of the affinity matured clones (antibody, V domains shown)
# VH: B1 VH with Y33W, K57Y
# VL: B2 VL
# B4: BGA2588 (BGA5384 conjugated with DXD) (antibody, human IgG1, kappa, V domains shown)
# VH: B1 VH
# VL: B1 VL
# modifications: DXD linker-payload conjugated after reduction of the antibody, DAR 8 profile (structure only as a drawing in Table 18)
# B5: BGA8179 (antibody, human IgG1, V domains shown)
# VH: B1 VH with K57Y
# VL: B2 VL with I29Q, A51T, Y92L
# notes: Built on the BGA7592-1F-ph-M (BGA2433) template; human IgG1/kappa
# B6: BGA7592-1F-ph-M (antibody, human IgG1, V domains shown)
# VH: B1 VH with Y33W, K57Y
# VL: B2 VL with I29Q, A51T, Y92L
# notes: human IgG1/kappa; also called BGA2433
# B7: BGA2107 (antibody, human IgG1, V domains shown)
# VH: B1 VH with Y33W, Q54N, K57Y
# VL: B2 VL with I29Q, A51T, Y92L
# notes: as for B5
# B8: BGA0089 (antibody, human IgG1, V domains shown)
# VH: B1 VH with Y33W, K57Y, S59N
# VL: B2 VL with I29Q, A51T, Y92L
# notes: as for B5
# B9: BGA7592-1F-ph-L (antibody, human IgG1, V domains shown)
# VH: B1 VH with Y33W, K57Y
# VL: B2 VL with I29Q, A51F, Y92L
# notes: human IgG1/kappa; also called BGA3676
# Columns and labels:
# MKN45 cells = assay: Payload sensitivity of MKN45 cells; type: cell-based, human; settings: MKN45, 6 days; for EC50: read-out: EC50
# Experimental: At Day 0, cells were harvested with 0.25% trypsin-EDTA, plated at 5,000 cells/well in 96-well plates (655090, Greiner), and incubated at 37° C., 5% CO2 overnight. At Day 1, payload compounds were added (5× dilution) into plates. Cell and compound mixtures were incubated at 37° C., 5% CO2 for 6 days. Survival cell signaling was collected at Day 6 with 100 μL of detection reagent (G7573, Promega®); signal was read by Tecan Spark®. Data were analyzed by GraphPad Prism 9.0.0. All killing concentrations were duplicated or triplicated (Table 21 and FIG. 16). “SABC” refers to specific antibody binding capacity.
# [1] = target: T1, human CEA on cells (MKN45, LOVO, NCI-H2122, LS174T, CT26/CEA) (human, UniProt P06731 35-685); assay: cell-based or functional assay
# T1 sequence: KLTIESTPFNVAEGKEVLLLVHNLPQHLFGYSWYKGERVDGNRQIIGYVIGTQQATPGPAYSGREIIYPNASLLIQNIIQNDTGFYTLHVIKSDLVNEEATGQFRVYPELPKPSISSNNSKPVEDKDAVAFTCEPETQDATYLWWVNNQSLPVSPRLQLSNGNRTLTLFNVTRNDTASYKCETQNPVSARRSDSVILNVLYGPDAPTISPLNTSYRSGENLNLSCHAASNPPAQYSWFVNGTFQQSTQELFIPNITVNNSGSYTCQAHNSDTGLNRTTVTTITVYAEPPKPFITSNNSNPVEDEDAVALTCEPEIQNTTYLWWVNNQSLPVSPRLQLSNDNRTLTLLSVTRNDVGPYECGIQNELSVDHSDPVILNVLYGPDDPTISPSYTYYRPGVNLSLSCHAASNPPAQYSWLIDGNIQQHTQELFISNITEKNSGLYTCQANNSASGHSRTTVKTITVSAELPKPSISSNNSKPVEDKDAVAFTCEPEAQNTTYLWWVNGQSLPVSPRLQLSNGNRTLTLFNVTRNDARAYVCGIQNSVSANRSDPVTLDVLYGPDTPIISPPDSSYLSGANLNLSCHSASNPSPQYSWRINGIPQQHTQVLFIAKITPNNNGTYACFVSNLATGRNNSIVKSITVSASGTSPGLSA
# [2] = target: T1, human CEA on cells (MKN45, LOVO, …); assay: cell-based or functional assay; remark: listed apart in the source
# [3] = target: T1, human CEA on cells (MKN45, LOVO, …); assay: cell-based or functional assay; remark: listed apart in the source
# [4] = target: T2, chimeric construct (CHIM) (human); assay: SPR (BIAcore T-200); antibody captured on anti-human IgG chip, CHIM flowed (1.37-333 nM)
# T2 construct: CEACAM6 AA 1-273 joined to the membrane-peripheral region containing domain B3 of CEA (AA 596-687), C-terminal 6xHis; also called chimeric CEA
# T2 chain: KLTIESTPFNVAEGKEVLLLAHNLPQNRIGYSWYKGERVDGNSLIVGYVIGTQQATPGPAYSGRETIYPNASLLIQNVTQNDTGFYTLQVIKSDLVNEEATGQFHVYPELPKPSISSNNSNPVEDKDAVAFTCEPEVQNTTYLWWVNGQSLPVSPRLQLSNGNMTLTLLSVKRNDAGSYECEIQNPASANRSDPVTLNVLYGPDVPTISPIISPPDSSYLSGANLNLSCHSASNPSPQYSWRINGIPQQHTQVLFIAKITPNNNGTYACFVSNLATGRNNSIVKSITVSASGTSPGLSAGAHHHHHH
# Experimental: For this experiment, anti-human IgG (Fc) antibody was immobilized on an activated CM5 biosensor chip (Cat. No. BR100839, GE Life Sciences). Anti-CEA antibodies were flowed over the chip surface and captured by anti-human Fab antibody. […] For flow cytometry, CEA-expressing cells (10′ cells/well) were incubated with various concentrations of purified affinity-matured antibodies, followed by binding with Alexa Fluro-647-labeled anti-hu IgG Fc antibody (Cat. No. 409320, BioLegend, USA). Cell fluorescence was quantified using a flow cytometer (Guava easyCyte™ 8HT, Merck-Millipore, USA). The equilibrium dissociation constant (KD) was calculated as the ratio koff/kₒₙ.
# CHIM [5] = target: T3, CHIM (Homo sapiens, UniProt P06731, A174T/A211G/A239V/A261S/A267P/C12H/D173N/E253A/E283V/F203L/F272R/F277P/F63I/H123Q/H61N/H9C/I100T/I112V/I113T/I13V/I230T/I80V/INS244IISP/K155N/K214E/L18V/L245P/L62R/N182G/N204S/N246D/N288K/P266S/P287A/Q16K/Q78L/R139H/R17E/R198M/R224N/R250L/R77S/S228P/S280H/T171V/T206K/T210A/T217I/T247S/T276I/V221A/V273I/V291P/V55A/W11L); assay: SPR affinity comparison of affinity matured humanized BGA7592 variants on CHIM; type: binding; settings: Table 9, SPR on CHIM
# T3 construct: CEACAM6 N-terminal part (fusion partner); 6xHis (C); made in house; host or cells: HEK293-based mammalian cell expression system
# T3 sequence (P06731 with tags, fused parts or gaps H9C/W11L/C12H/I13V/Q16K/R17E/L18V/V55A/H61N/L62R/F63I/R77S/Q78L/I80V/I100T/I112V/I113T/H123Q/R139H/K155N/T171V/D173N/A174T/N182G/R198M/F203L/N204S/T206K/T210A/A211G/K214E/T217I/V221A/R224N/S228P/I230T/A239V/INS244IISP/L245P/N246D/T247S/R250L/E253A/A261S/P266S/A267P/F272R/V273I/T276I/F277P/S280H/E283V/P287A/N288K/V291P): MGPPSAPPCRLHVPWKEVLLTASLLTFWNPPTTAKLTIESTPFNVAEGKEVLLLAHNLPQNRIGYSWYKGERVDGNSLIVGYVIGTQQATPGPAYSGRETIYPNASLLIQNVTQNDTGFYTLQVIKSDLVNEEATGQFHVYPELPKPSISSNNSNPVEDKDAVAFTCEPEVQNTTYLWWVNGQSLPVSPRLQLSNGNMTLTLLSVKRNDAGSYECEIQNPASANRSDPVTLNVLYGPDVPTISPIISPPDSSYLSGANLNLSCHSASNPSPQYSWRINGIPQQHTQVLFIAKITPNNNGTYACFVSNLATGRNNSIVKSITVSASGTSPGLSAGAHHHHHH
# Experimental: Affinity comparison of BGA7592-1F (BGA5366) and other affinity matured clones was made by SPR assay (Table 9) using BIAcore™ T-200 (GE Life Sciences) and flow cytometry (FIG. 7). For this experiment, anti-human IgG (Fc) antibody was immobilized on an activated CM5 biosensor chip (Cat. No. BR100839, GE Life Sciences). Anti-CEA antibodies were flowed over the chip surface and captured by anti-human Fab antibody. Then a serial dilution (1.37 nM to 333 nM) of CHIM was flowed over the chip surface and changes in surface plasmon resonance signals were analyzed to calculate the association rates (kon) and dissociation rates (koff) by using the one-to-one Langmuir binding model (BIA Evaluation Software, GE Life Sciences). For flow cytometry, CEA-expressing cells (10′ cells/well) were incubated with various concentrations of purified affinity-matured antibodies, followed by binding with Alexa Fluro-647-labeled anti-hu IgG Fc antibody (Cat. No. 409320, BioLegend, USA). Cell fluorescence was quantified using a flow cytometer (Guava easyCyte™ 8HT, Merck-Millipore, USA). The equilibrium dissociation constant (KD) was calculated as the ratio koff/kon.
# [6] = target: T2, chimeric construct (CHIM); assay: SPR; binding to CHIM
# CHIM [7] = target: T3, CHIM; assay: SPR affinity comparison of affinity matured humanized BGA7592 variants on CHIM; type: binding; settings: for Ka / Rmax: Table 11, SPR to CHIM
molecule,measurement,setting,value
"CC[C@@]1(O)C(=O)OCc2c1cc1n(c2=O)Cc2c-1nc1cc(F)c(C)c3c1c2[C@@H](NC(=O)C(C)(C)CO)CC3 [P3, N-((1S,9S)-9-ethyl-5-fluoro-9-hydroxy-4-methyl-10,13-dioxo-2,3,9,10,13,15-hexahydro-1H,12H-benz′[d′]pyrano[3′,4′:6,7]indolizino[1,2-b]quinolin-1-yl)-3-hydroxy-2,2-dimethylpropanamide]",EC50,"MKN45 cells; Homo sapiens, MKN-45",0.89 nM
same,Emax,"MKN45 cells; Homo sapiens, MKN-45, read-out: Emax",97%
"COc1cc2cc(c1Cl)N(C)C(=O)C[C@H](OC(=O)[C@H](C)N(C)C(=O)CCC(C)(C)S)[C@]1(C)O[C@H]1[C@H](C)[C@@H]1C[C@@](O)(NC(=O)O1)[C@H](OC)/C=C/C=C(\C)C2 [P1, DM4]",Emax,MKN45 cells,97.6
same,EC50,MKN45 cells,1.16 nM
B1,"EC50, cell killing of NCI-H2122 cells",[1],0.19 nM
same,"Emax, cell killing of NCI-H2122 cells",[1],82.8
same,"EC50, cell killing of MKN45 cells",[2],0.44 nM
same,"Emax, cell killing of MKN45 cells",[2],89
same,"EC50, cell killing of LS174T cells",[3],0.76 nM
same,"Emax, cell killing of LS174T cells",[3],70.3
B2,Kd,[4],790 nM
same,koff,[4],0.0015 s⁻¹
same,kon,[4],1900 M⁻¹ s⁻¹
B3,Ka,CHIM [5],1900 M⁻¹ s⁻¹
same,Rmax,CHIM [5],367 RU
B4,"EC50, cell killing of NCI-H2122 cells",[1],0.22 nM
same,"Emax, cell killing of NCI-H2122 cells",[1],74
same,"EC50, cell killing of MKN45 cells",[2],0.46 nM
same,"Emax, cell killing of MKN45 cells",[2],85
same,"EC50, cell killing of LS174T cells",[3],1.12 nM
same,"Emax, cell killing of LS174T cells",[3],69.7
B5,Kd,[6],14.2 nM
same,koff,[6],0.000282 s⁻¹
same,kon,[6],19900 M⁻¹ s⁻¹
same,binding activities compared to BGA7592-1F-ph-F (BGA9521),CHIM [7],improved binding activities
same,Ka,CHIM [7],19900 M⁻¹ s⁻¹
same,Rmax,CHIM [7],129.1 RU
B6,Kd,[6],12.6 nM
same,koff,[6],0.000248 s⁻¹
same,kon,[6],19700 M⁻¹ s⁻¹
same,Kd,[4],99 nM
same,koff,[4],0.00025 s⁻¹
same,kon,[4],2500 M⁻¹ s⁻¹
B7,Kd,[6],19.2 nM
same,koff,[6],0.00038 s⁻¹
same,kon,[6],19800 M⁻¹ s⁻¹
same,binding activities compared to BGA7592-1F-ph-F (BGA9521),CHIM [7],improved binding activities
same,Ka,CHIM [7],19800 M⁻¹ s⁻¹
same,Rmax,CHIM [7],71.1 RU
B8,Kd,[6],21.5 nM
same,koff,[6],0.000394 s⁻¹
same,kon,[6],18400 M⁻¹ s⁻¹
same,binding activities compared to BGA7592-1F-ph-F (BGA9521),CHIM [7],improved binding activities
same,Ka,CHIM [7],18400 M⁻¹ s⁻¹
same,Rmax,CHIM [7],59.4 RU
B9,Kd,[4],46 nM
same,koff,[4],0.0003 s⁻¹
same,kon,[4],6700 M⁻¹ s⁻¹
